Test: yeast display, Sf9 membrane polyspecificity reagent, FACS + sequencing; frameworks hold sequencing errors
Outline: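 Galactose-induced (36–48 hours) yeast carrying a synthetic nanobody display library were exposed to 10% biotinylated, detergent-solubilized Sf9 membrane reagent at 4 °C for 1 hour. FACS followed streptavidin microbead enrichment, using low and high (top ~1%) gates for expression (anti-HA) and reagent binding (streptavidin). Colony PCR, MiSeq 2 × 250 sequencing and CDR-length filtering followed. Labels for polyreactivity reflect the gate of origin.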

Sequence | polyreactivity (PSR sort gate)
QVQLVESGGGLVQAGGSLRLSCAASGSTIDWYGMGWYRQAPGKERELVAAINFSDGSTYYADSVKGRFTISRDNAKNTVYLQMNSLKPEDTAVYYCAAYTPSYGGRDYWGQGTQVTVSS | low polyreactivity
QVQLVESGGGLVQAGGSLRLSCAASGSTIDYYAMGWYRQAPGKERELVATISRGGSTNYADSVKGRFTISRDNAKNTVYLQMNSLKPEDTAVYYCAATYARYFYKYYYWGQGTQVTVSS | high polyreactivity
QVQLVESGGGLVQAGGSLRLSCAASGSTIEPNSMGWYRQAPGKEREFVAAITTRGGSTFYADSVKGRFTISRDNAKNTVYLQMNSLKPEDTAVYYCAADYYFVDYDYWGQGTQVTVSS | low polyreactivity
QVQLVESGGGLVQAGGSLRLSCAASGSTIFYNAMGWYSKAPGKERELVAAITDSGGSTYYADSVKGRFTISRDNAKNTVYLQMNSLKPEDTAVYYCAKRNFDNPIFDYWGQGTQVTVSS | low polyreactivity
QVQLVESGGGLVQAGGSLRLSCAASGSTIGDNAMGWYSQAPGKERELVASISWSGASTYYADSVKGRFTISRDNAKNTVYLQMNSLKPEDTAVYYCAVYYSYYSHLYHLLFYYWGQGTQVTVSS | low polyreactivity
QVQLVESGGGLVQAGGSLRLSCAASGSTIIAYAMGWYRQAPGKERELVAAITTGDSTNYADSVKGRFTISRDNAKNTVYLQMNSLKPEDTAVYYCNADATDFHFLSEIGSSQEGDYWGQGTQVTVSS | low polyreactivity
QVQLVESGGGLVQAGGSLRLSCAASGSTIIYNTMGWYRQAPGKERELVARITWSGGSTSYADSVKGRFTISRDNAKNTVYLQMNSLKPEDTAVYYCNRRVQARRYRYDYWGQGTQVTVSS | high polyreactivity
QVQLVESGGGLVQAGGSLRLSCAASGSTIKYYAMGWYRQAPGKDRELVAAINWSGDSTYYADSVKGRFTISRDNAKNTVYLQMHSLKPEETAVYYCAVRYQKRAYYGSNYWGQGTQVTVSS | high polyreactivity
QVQLVESGGGLVQAGGSLRLSCAASGSTILSNAMGWYRQAPGKERELVARITSGGSTHYADSVKGRFTISRDNAKNTVYLQMNSLKPEDTAVYYCNADYWFVEYDYWGQGTQVTVSS | low polyreactivity
QVQLVESGGGLVQAGGSLRLSCAASGSTIPRNALGWYRQATGKERELVPAISSGGSTYYADSVKWRFTISRDNAKNTVYLQMNRLKPEDTAVYYCAARLYWPIIVVDLYGYDYWGQGTQVTVSS | low polyreactivity
QVQLVESGGGLVQAGGSLRLSCAASGSTIQSNGMVWYRQAPGKERELVAAITSTDASTSYADSVKGRFTISRDNAKNTVYLQMNSLKPEDTAVYYCAADFPVASGAELDYWGLGTQVTVSS | low polyreactivity
QVQLVESGGGLVQAGGSLRLSCAASGSTIRFNAMGWYRQAPRKERELVAAISWRGGTTYADSVKGRFTISRDNAKNTVFLQMTSLKPEDTAVYYCAAGLYAQGKRYGYWGHGTQVTVSS | high polyreactivity
QVQLVESGGGLVQAGGSLRLSCAASGSTIRLNAMGWYRQAPGKERELVAAISWTGGSTYYADSVKGRFTISRDNAKNTVYLQMNSLKPEDTAVYYCAADWWQGTSHYWGGAYNYWGQGTQVTVSS | low polyreactivity
QVQLVESGGGLVQAGGSLRLSCAASGSTIRSYAMGWYRQAPGKERELVAVISSGDSTYYADSVKGRFTISRDNAKNTVYLQMNSLKPEDTAVYYCAADSYVLGRWYGYWGQGTQVTVSS | low polyreactivity
QVQLVESGGGLVQAGGSLRLSCAASGSTISGYAMGWYRQAPGKERELVATISRGGSTNYADSVKGRFTISRDNAKNTVYLQMNSLKPEDTAVYNCAAQTYVWWVKYHSWGQGTQVTVSS | low polyreactivity
QVQLVESGGGLVQAGGSLRLSCAASGSTISYYAMGWYRQAPGKERELVAAITRSGGSTYYADSVKGRFTISRDNAKNTFYLQMNSLKPEDTAVYYCAKGWRYFVGWGQRSRYYFWGQGTQVTVSS | high polyreactivity
QVQLVESGGGLVQAGGSLRLSCAASGSTITDYDMGWYRQAPGKERELVAAITSGGSTNYADSVKGRFTISRDNAKNTVYLQMNSLKPEDTAVYYCAAADADRKYDYWGQGTQVTVSS | low polyreactivity
QVQLVESGGGLVQAGGSLRLSCAASGSTITDYTMGWYRQAPGKERELVAVISQSGGSTYYADSVKGRFTISRDNAKNTVYLQMNSLKPEDTAVYYCAARTYWRGYRGQKYDYWGQGTQVTVSS | high polyreactivity
QVQLVESGGGLVQAGGSLRLSCAASGSTIVSYDMGWYRPAPGKDRELVAAITYDGDSTYYADSVKGRFTISRDNAKNTVYLQMNSLKPEDTAVYYCAAEPGDDLKFRGGFEYWGQGTQVTVSS | low polyreactivity
QVQLVESGGGLVQAGGSLRLSCAASGSTIYKYAMGWYRQAPGKERELVAAISGSGGRTYYADSVKGRFTISRDNAKNTVYLQMNSLKPEDTAVYYCAARPKGGPWEHDYWGQGTQVTVSS | high polyreactivity
QVQLVESGGGLVQAGGSLRLSCAASGSTIYPYAMGWYRQAPGKERELVASISGGGSTYYADSVKGRFTISRDNAKNTVYLQMNSLKPEDTAVYYCNAEFDLYWYRYYYWGQGTQVTVSS | high polyreactivity

Sequence | polyreactivity (PSR sort gate)
QVQLVESGGGLVQAGGSLRLSCAASGSTIYSYAMGWYRQAPGKERELVAAISWSGARTYYADSVKGRFTISRDIAKNTVYLQMNSLKPEDTAVYYCAASGYYSSHMDYWGQGTQVTVSS | high polyreactivity
QVQLVESGGGLVQAGGSLRLSCAASGSTIYTYALGWYRQAPGKERELVAAIRGRGGRTYYADSVKGRFTISRDNAKNTVYLQMNSLKPEDTAVYYCNADGYAYYRATTRFDYWGQGTQVTVSS | high polyreactivity
QVQLVESGGGLVQAGGSLRLSCAASGSTIYVKAMGWYRQAPGKEREFVAAITWNSGSTYYADSVKGRFTISRDNAKKTVYLQINSLKPEDTAVYYCAAVLSVLVYGYVYWGQGTQVTVSS | low polyreactivity
QVQLVESGGGLVQAGGSLRLSCAASGSTIYVYAMGWYRHPPGKERELVAAISTAGGRTSYADSVKGRFTISRDNAQNTVYLQMNSLKPEDTAVYYCAARSTLYRSIRYDYWGQGTQVTVSS | high polyreactivity
QVQLVESGGGLVQAGGSLRLSCAASGSTLAGYAMGWYRQAPGKERELVATISWSDGSTSYADSVKGRFTFSRDNAKNTVYLQLNSLKPEDTAVSYCAADAITNYDGRKSRRSYSAYDYWGQGTQVTVSS | low polyreactivity
QVQLVESGGGLVQAGGSLRLSCAASGSTLAQYAMGWYRQAPGKERELVAAISRRGASTYYADSVKGRFTISRDNAKNTGYLQMNSLKPEDTAVYYCNAVRGEKMGYWGQGTQVTVSS | high polyreactivity
QVQLVESGGGLVQAGGSLRLSCAASGSTLASYAMGWYKQAPGKERELVAAISRGGGSTFYADSVKGRFTISRDNAKNTVYLQMNSLKPEDTAVYYCAAFGRYYYIYDYWGQGTQVTVSS | high polyreactivity
QVQLVESGGGLVQAGGSLRLSCAASGSTLAYNAMGWYRQAPGKERELVAAISSNGDSTYYADSVKGRFTISRDNAKNTVYLQMNSLKPEDTAVYYCAAGYYSRYYEAFEYYYWGQGTQVTVSS | high polyreactivity
QVQLVESGGGLVQAGGSLRLSCAASGSTLDGNAMGWYRQAPGKERELVAAISVSGGSTYYADSVKGRFTISRDNAKNTVYLQMNSLKPEDPAVYYCSTEWRPRYYGTEPFDSWGQGTQVTVSS | high polyreactivity
QVQLVESGGGLVQAGGSLRLSCAASGSTLESYAMGWYRQAPGKERELVAAISKSGGRTYYADSVKGRFTISRDNAKNTLYLQMNSLKPEDTAVYYCAADSGTHLTYYWGQGTQVTVSS | high polyreactivity
QVQLVESGGGLVQAGGSLRLSCAASGSTLFWNAIGWYRQAPGKERELVAVISFSGVSTYYADSVKGRFTISRDNAKNTVYLQMNSLKPEDTAVYYCAAEVPHWPYYGRLHDRDYWGQGTQVTVSS | low polyreactivity
QVQLVESGGGLVQAGGSLRLSCAASGSTLGAYAMGWSRQAPGKERELVAAISRSGGNTYYADSVKGRFTISRDNAKNTVYLQMNSLKPDDTAVYYCAAVRLYRYDYWGQGTQVTVSS | low polyreactivity
QVQLVESGGGLVQAGGSLRLSCAASGSTLGVYAMGWYRQAPGKERELVAAISSGGSTTYADSVKGRFTISRDNAKNTDYLQMNSLKPEDTAVYYCAATNVRGVYYWGQGTQVTVSS | high polyreactivity
QVQLVESGGGLVQAGGSLRLSCAASGSTLGYYVMGWYRQAPGKERELVAAITGGGSTDYADSVKGRFTISRDNAKNTVYLQMNSLIPEDTAVYYCAAERTRTGQLFWWGPIYDYWGQGTQVTVSS | low polyreactivity
QVQLVESGGGLVQAGGSLRLSCAASGSTLHLYAMGWYRQAPGKERELVADITSGGDTYYADSVKGRFTISRDNAKNTVYLQMNSLKPEDTAVYYCNAVYEGRYEYAYYYRYDYWGQGTQVTLSS | high polyreactivity
QVQLVESGGGLVQAGGSLRLSCAASGSTLLANAMGWYRQAPGKERELVAASTYYADSVKGRFTISRDNAKNTVYLQMNSLKPEDTAVYYCAADTVRGGPDGIEYNYWGQGTQVTVSS | low polyreactivity
QVQLVESGGGLVQAGGSLRLSCAASGSTLLYYAKGWYRQAPGKERELVAAISWRGGSTYYADSVKGRFTISRDNAKYTVYLQMNSLKPEDTAVYYCAARSLRLVGPYYYWGQGTQVTVSS | high polyreactivity
QVQLVESGGGLVQAGGSLRLSCAASGSTLNRNAMGWYRQAPGKERDLVAAIRVSGGSTYYADSVKGRFTISRDNAKNTVYLQMNSLKPEDTAVYYCATRYVRARWYGYWGQGTQVTVSS | high polyreactivity
QVQLVESGGGLVQAGGSLRLSCAASGSTLNSYVMGWYRQAPGKERELVATIRSGSSTNYADSVKGRFTISRDNAKNTVYLQMNSLKPEDTAVYYCAGDAYSLCYDSWGQGTQVTVSS | low polyreactivity
QVQLVESGGGLVQAGGSLRLSCAASGSTLNVNAMGWYRQAPGKERELVAAITSGGSTYYADSVKGRFTISRDNEKNTVYLQIHSLKPEDTAVYYCNKRRSWRPTYPIGGSGFYYWGQGTQVTVSS | low polyreactivity

Reference: the nanobody polyreactivity screen of Harvey et al. (2022)
